Values belong to the molecule of their own block, whether it stands above or below them. Non-standard residues stand in square brackets, D forms with d. No end group written: not given here. Hyp = O=C(O)[C@@H]1C[C@@H](O)CN1
Columns and labels:
[1] = target: SGN3^3xmut ectodomain (Tyr416, Phe438 and Tyr440 replaced by alanine) (Arabidopsis) (UniProt C0LGQ5); experiment: grating-coupled interferometry
[2] = target: GSO1/SGN3 ectodomain (residues 19 to 870) (Arabidopsis) (UniProt C0LGQ5); experiment: grating-coupled interferometry
[3] = target: GSO1/SGN3 ectodomain (residues 19 to 870) (Arabidopsis) (UniProt C0LGQ5); experiment: ITC
[4] = system: GSO1/SGN3; experiment: Binding of CIF2^Hyp69,71 to GSO1/SGN3; parameters: species or system Arabidopsis; conditions: SI Appendix, Fig. S6
[5] = target: GSO2 ectodomain (recombinant) (Arabidopsis) (UniProt Q9FIZ3); experiment: grating-coupled interferometry
GSO2 ectodomain (recombinant) (Arabidopsis), sequence (Q9FIZ3 23-876): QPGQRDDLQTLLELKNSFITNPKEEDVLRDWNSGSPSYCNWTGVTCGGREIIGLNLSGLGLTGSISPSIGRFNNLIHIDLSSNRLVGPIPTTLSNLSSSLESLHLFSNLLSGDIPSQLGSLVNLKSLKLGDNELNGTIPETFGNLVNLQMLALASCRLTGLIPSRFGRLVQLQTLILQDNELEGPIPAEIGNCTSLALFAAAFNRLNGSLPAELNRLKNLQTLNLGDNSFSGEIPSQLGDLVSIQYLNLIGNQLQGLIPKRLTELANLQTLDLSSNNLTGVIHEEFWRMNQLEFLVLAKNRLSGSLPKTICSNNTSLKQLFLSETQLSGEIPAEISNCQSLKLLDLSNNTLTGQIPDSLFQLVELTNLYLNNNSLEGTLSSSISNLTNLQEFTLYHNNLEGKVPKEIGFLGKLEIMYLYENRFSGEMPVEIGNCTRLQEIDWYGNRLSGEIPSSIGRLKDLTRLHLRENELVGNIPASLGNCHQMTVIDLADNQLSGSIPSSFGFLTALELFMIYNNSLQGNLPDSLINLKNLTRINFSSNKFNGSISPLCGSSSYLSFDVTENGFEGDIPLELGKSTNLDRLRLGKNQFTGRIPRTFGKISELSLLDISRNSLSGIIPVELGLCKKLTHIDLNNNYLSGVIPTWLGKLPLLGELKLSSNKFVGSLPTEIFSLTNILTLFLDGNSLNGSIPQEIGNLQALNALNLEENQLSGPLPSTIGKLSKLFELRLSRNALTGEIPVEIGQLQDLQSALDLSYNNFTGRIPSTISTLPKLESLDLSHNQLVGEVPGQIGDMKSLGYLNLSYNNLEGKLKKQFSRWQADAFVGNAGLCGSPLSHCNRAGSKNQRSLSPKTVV

[6] = target: BAM1 ectodomain (Arabidopsis) (UniProt O49545); experiment: grating-coupled interferometry
BAM1 ectodomain (Arabidopsis), sequence (O49545 20-640): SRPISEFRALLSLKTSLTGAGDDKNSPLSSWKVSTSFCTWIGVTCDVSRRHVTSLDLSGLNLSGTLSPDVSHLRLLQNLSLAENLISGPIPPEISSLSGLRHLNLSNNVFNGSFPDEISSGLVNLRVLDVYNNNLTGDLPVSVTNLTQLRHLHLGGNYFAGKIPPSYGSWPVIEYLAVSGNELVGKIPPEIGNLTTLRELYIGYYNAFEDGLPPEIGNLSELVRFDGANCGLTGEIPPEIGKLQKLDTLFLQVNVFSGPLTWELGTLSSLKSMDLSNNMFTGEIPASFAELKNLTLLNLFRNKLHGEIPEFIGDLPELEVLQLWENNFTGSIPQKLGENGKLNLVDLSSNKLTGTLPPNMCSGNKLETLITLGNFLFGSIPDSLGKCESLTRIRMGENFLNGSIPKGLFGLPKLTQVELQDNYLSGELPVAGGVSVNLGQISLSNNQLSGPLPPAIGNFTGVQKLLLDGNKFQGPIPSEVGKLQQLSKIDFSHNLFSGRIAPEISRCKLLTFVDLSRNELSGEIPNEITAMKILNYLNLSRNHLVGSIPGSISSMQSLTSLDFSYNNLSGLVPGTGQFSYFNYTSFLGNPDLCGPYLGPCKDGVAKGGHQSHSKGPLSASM

[7] = target: PEPR1 ectodomain (Arabidopsis) (UniProt Q9SSL9); experiment: grating-coupled interferometry
PEPR1 ectodomain (Arabidopsis), sequence (Q9SSL9 29-769): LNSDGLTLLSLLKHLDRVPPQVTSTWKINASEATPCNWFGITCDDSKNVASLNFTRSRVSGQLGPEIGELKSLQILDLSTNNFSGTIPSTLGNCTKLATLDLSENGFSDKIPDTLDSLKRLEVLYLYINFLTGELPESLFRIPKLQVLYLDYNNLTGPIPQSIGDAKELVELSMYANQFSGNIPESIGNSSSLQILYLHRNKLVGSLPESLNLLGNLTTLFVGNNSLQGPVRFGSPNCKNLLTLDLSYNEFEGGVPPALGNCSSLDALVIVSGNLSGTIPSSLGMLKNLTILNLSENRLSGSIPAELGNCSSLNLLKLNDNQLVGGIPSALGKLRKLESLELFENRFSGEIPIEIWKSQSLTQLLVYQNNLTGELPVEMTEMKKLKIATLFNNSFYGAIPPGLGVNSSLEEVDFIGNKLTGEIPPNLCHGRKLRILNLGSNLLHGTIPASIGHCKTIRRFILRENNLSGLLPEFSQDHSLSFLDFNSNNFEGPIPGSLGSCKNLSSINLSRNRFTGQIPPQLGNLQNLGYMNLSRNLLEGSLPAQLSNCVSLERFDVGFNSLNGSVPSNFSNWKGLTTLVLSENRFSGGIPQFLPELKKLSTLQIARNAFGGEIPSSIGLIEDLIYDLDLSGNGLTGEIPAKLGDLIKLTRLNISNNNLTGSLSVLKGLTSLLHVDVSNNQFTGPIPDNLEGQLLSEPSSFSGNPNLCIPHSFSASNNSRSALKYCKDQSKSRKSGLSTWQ

[8] = system: GSO1/SGN3 ectodomain (SGN3^WT) - CIF peptide; conditions: CIF-dependent interaction
[9] = system: EFR; experiment: GCI, SERK3 binding to EFR; parameters: species or system Arabidopsis
[10] = system: FLS2; experiment: GCI, SERK3 binding to FLS2; parameters: species or system Arabidopsis
[11] = target: GSO2 in the presence of CIF3; experiment: GCI coreceptor assay, SERK1 and SERK3 vs GSO2 in the presence of CIF3; parameters: species or system Arabidopsis; conditions: read-out: Kd of SERK binding to GSO2
[12] = target: FLS2 ectodomain (isolated) (Arabidopsis) (UniProt Q9FL28); experiment: grating-coupled interferometry
FLS2 ectodomain (isolated) (Arabidopsis), sequence (Q9FL28 24-806): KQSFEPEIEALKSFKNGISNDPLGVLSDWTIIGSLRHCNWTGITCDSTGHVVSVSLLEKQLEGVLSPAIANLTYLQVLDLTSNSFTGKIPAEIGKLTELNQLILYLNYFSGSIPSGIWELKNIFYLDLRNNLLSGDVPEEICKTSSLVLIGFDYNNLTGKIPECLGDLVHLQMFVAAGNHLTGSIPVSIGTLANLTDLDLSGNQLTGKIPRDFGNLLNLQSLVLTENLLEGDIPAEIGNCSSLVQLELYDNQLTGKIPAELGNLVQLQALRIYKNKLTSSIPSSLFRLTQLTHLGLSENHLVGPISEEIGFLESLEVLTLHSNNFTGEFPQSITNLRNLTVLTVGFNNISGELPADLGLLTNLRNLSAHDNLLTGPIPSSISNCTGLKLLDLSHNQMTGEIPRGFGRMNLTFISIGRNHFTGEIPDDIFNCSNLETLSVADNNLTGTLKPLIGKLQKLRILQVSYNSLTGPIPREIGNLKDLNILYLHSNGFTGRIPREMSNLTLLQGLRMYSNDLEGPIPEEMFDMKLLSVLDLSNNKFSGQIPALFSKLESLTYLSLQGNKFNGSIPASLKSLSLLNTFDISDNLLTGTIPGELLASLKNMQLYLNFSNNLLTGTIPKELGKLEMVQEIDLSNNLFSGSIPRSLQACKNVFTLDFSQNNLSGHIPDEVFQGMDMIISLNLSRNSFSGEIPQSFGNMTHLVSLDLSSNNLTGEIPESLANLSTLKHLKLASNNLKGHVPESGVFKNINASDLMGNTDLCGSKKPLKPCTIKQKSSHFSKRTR

[13] = target: FLS2 ectodomain (isolated) (Arabidopsis, UniProt Q9FL28 24-806); experiment: grating-coupled interferometry
FLS2 ectodomain (isolated), sequence (Q9FL28 24-806): as above

[14] = target: T1, GSO1/SGN3 ectodomain (SGN3^WT) - CIF peptide (Arabidopsis thaliana, UniProt C0LGQ5); conditions: in the absence of CIF peptide
T1 sequence (C0LGQ5 19-870): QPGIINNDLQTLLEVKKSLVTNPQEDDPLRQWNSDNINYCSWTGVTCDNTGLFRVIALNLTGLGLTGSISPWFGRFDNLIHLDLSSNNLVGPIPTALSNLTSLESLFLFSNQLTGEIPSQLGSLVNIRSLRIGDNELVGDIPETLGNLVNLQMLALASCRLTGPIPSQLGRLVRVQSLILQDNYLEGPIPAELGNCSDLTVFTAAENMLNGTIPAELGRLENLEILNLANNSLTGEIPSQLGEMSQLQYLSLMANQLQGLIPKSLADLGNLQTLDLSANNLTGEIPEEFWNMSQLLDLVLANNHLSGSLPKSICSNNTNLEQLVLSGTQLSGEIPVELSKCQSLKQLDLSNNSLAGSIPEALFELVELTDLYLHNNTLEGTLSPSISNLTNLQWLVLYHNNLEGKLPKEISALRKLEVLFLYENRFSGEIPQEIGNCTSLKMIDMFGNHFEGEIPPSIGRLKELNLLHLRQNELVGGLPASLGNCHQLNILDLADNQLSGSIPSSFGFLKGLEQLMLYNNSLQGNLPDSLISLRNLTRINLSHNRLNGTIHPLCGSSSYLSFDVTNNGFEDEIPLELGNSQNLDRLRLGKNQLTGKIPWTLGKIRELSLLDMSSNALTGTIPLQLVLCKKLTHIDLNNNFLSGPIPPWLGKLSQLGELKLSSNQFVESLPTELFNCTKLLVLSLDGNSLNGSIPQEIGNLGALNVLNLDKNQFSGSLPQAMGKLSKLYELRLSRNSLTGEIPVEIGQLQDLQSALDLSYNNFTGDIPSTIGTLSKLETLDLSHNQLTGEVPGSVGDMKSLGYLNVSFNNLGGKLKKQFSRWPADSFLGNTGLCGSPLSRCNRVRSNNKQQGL

- fold reduction of CIF2 binding against wild-type GSO1/SGN3 [1]: 10 fold
- Kd [2]: 2 nM
- Kd [3]: 40 nM
- stoichiometry N [3]: 1
Molecule: CIF2 peptide, synthetic sTyr-containing (CIF2^WT) (from UniProt O65684 29-83)

- Kd [7]: 20 µM
Molecule: PEP2 danger signal peptide (23 amino acids) (from UniProt Q9LV88 74-109)

- binding result [13]: binds
B1: SERK3 LRR ectodomain (receptor, Arabidopsis, UniProt Q94F62 26-225, looked up)
chain: NAEGDALSALKNSLADPNKVLQSWDATLVTPCTWFHVTCNSDNSVTRVDLGNANLSGQLVMQLGQLPNLQYLELYSNNITGTIPEQLGNLTELVSLDLYLNNLSGPIPSTLGRLKKLRFLRLNNNSLSGEIPRSLTAVLTLQVLDLSNNPLTGDIPVNGSFSLFTPISFANTKLTPLPASPPPPISPTPPSPAGSNRITG

- SERK1 binding to SGN3 [14]: No SERK1 binding
- Kd [11]: 20 to 80 nM
B2: SERK1: recombinant LRR ectodomain of the SERK1 coreceptor kinase (residues 24 to 213) (protein)
chain: ASANLEGDALHTLRVTLVDPNNVLQSWDPTLVNPCTWFHVTCNNENSVIRVDLGNAELSGHLVPELGVLKNLQYLELYSNNITGPIPSNLGNLTNLVSLDLYLNSFSGPIPESLGKLSKLRFLRLNNNSLTGSIPMSLTNITTLQVLDLSNNRLSGSVPDNGSFSLFTPISFANNLDLCGPVTSHPCPGS

Second part, the molecule before the results:

Molecule: CIF2^Hyp69,71: CIF2 with hydroxyprolines at positions 69 and 71 (GRSSILIYSQEDDHPEVVERRIHEHERILRMNSRDYGHSS[Hyp]K[Hyp]KLVRPPFKLIPN)
- dissociation constant compared with CIF2^WT [4]: very similar dissociation constants

Molecule: CIF3 peptide, tyrosine sulfated (CIF3^WT)
- Kd [2]: 4 nM
- Kd [5]: 4 nM

Molecule: CIF4 peptide (wild type)
- Kd [3]: 300 nM
- stoichiometry N [3]: 1

Molecule: CLE9 peptide (12 amino acids)
- Kd [6]: 1 nM

Molecule: PEP1 danger signal peptide (23 amino acids)
- Kd [7]: 0.1 µM

Molecule: SERK3: recombinant LRR ectodomain of the SERK3 coreceptor kinase
- interaction of coreceptor candidate with GSO1/SGN3 in GCI assays [8]: interacts
- affinity of SERK3 binding [9]: low micromolar affinity
- affinity of SERK3 binding [10]: low micromolar affinity
- Kd [11]: 20 to 80 nM

Molecule: flg22 immune elicitor peptide
- Kd [12]: 1500 nM
